13 molecules from patent US10253086B2, “CD20 therapies, CD22 therapies, and combination therapies with a CD19 chimeric antigen receptor (CAR)-expressing cell” (Novartis AG, priority 2015, dated 2019) can be followed below.

Where a chain is given by its changes, count along the chain named.

First the molecules themselves.
B1: hCD22-10: human CD22 CAR (protein)
scFv: EVQLQQSGPGLVKPSQTLSLTCAISGDSVLSNSDTWNWIRQSPSRGLEWLGRTYHRSTWYDDYASSVRGRVSINVDTSKNQYSLQLNAVTPEDTGVYYCARDRLQDGNSWSDAFDVWGQGTMVTVSSGGGGSGGGGSGGGGSQSALTQPASVSGSPGQSITISCTGTSSDVGGYNYVSWYQQHPGKAPKLMIYDVSNRPSGVSNRFSGSKSGNTASLTISGLQAEDEADYYCSSYTSSSTLVYVFGTGTKVTVL
B2: hCD22-5: human CD22 CAR (protein)
scFv: EVQLVESGGGLVQPGRSLRLSCAASGFTFDDYAMHWVRQAPGKGLEWVSGISWNSGSIGYADSVKGRFTISRDNAKNSLYLQMNSLRAEDTALYYCAKDKGGGYYDFWSGSDYWGQGTLVTVSSGGGGSGGGGSGGGGSSSELTQDPAVSVALGQTVRITCQGDSLRSYYASWYQQKPGQAPVLVIYGKNNRPSGIPDRFSGSSSGNTASLTITGAQAEDEADYYCNSRDSSGWVFGGGTKLTVL
B3: hCD22-31: human CD22 CAR (protein)
scFv: QVQLVQSGAEVKKPGASVKVSCKASGYTFTSYDINWVRQATGQGLEWMGWMNPNSGNTGYAQKFQGRVTMTRNTSISTAYMELSSLRSEDTAVYYCARGDSNYWSYYGMDVWGQGTLVTVSSGGGGSGGGGSGGGGSGGGGSQSVLTQPRSVSGSPGQSVTISCTGTSSDVGGYNYVSWYQQHPGEAPKLIIYDADKRPSGISNRFSSGKSGNTASLTISGLQVEDEADYYCCSYAGGSTWVFGGGTKVTVL
B4: hCD22-2: human CD22 CAR (protein)
scFv: EVQLQQSGPGLVKPSQTLSLTCAISGDSVSSNSAAWNWIRQSPSRGLEWLGRTYYRSKWYNDYAVSVKSRITINPDTSKNQFSLQLNSVTPEDTAVYYCARDLGWIAVAGTFDYWGQGTLVTVSSGGGGSGGGGSGGGGSQSALTQPASVSGSPGQSITISCTGTSSDVGGYNYVSWYQQHPGKAPKLMIYDVSKRPSGVSNRFSGSKSGNTASLTISGLQAEDEADYYCSSYTSSSLNHVFGTGTKVTVL
B5: m971-HL: CD22 (m971-derived) CAR construct that served as positive control (antibody, V domains shown)
VH: QVQLQQSGPGLVKPSQTLSLTCAISGDSVSSNSAAWNWIRQSPSRGLEWLGRTYYRSKWYNDYAVSVKSRITINPDTSKNQFSLQLNSVTPEDTAVYYCAREVTGDLEDAFDIWGQGTMVTV
VL: DIQMTQSPSSLSASVGDRVTITCRASQTIWSYLNWYQQRPGKAPNLLIYAASSLQSGVPSRFSGRGSGTDFTLTISSLQAEDFATYYCQQSYSIPQTFGQGTKLEIK
B6: CD22-57: human CD22 scFv SEQ ID NO 132 (protein, listed as Homo sapiens)
scFv: EVQLQQSGPGLVKPSQTLSLTCAISGDSVSNNNAAWNWIRQSPSRGLEWLGRTYHRSTWYNDYVGSVKSRITINPDTSKNQFSLQLNSVTPEDTAVYYCARETDYGDYGAFDIWGQGTTVTVSSGGGGSGGGGSGGGGSQSALTQPASVSGSPGQSITISCTGSRNDIGAYESVSWYQQHPGNAPKLIIHGVNNRPSGVFDRFSVSQSGNTASLTISGLQAEDEADYYCSSHTTTSTLYVFGTGTKVTVLG
B7: CD22-60: human CD22 scFv SEQ ID NO 135 (protein, listed as Homo sapiens)
scFv: EVQLQQSGPGLVKPSQTLSLTCAISGDSVLSNSDTWNWIRQSPSRGLEWLGRTYHRSTWYDDYASSVRGRVSINVDTSKNQYSLQLNAVTPEDTGVYYCARDRLQDGNSWSDAFDVWGQGTMVTVSSGGGGSGGGGSGSGGSQSALTQPASVSGSPGQSITFSCTGTSSDIGGYNYVSWYQQHPGKAPKLMIYEVSNRPSGVSNRFSGTKSGNTASLTISGLQAEDEADYYCSSYTSSSTLYVFGTGTKLTVLG
B8: CD22-62: human CD22 scFv SEQ ID NO 137 (protein, listed as Homo sapiens)
scFv: B7 scFv with S139G, F162I, I171V, E194D, T209S, L250V
B9: CD22-61: human CD22 scFv SEQ ID NO 136 (protein, listed as Homo sapiens)
scFv: B7 scFv with E1Q, Q6E, F162I, I171V, T209S, L250V
B10: CD22-63: human CD22 scFv SEQ ID NO 138 (protein, listed as Homo sapiens)
scFv: B7 scFv with S139G, F162I, I171V, T209S, V243I, L250V
B11: CD22-58: human CD22 scFv SEQ ID NO 133 (protein, listed as Homo sapiens)
scFv: EVQLQQSGPGLVNPSQTLSITCAISGDSVSSNSAAWNWIRQSPSRGLEWLGRTFYRSKWYNDYAVSVKGRITISPDTSKNQFSLQLNSVTPEDTAVYYCAGGDYYYGLDVWGQGTTVTVSSGGGGSGGGGSGGGGSQSALTQPASVSGSPGQSITISCTGSSSDVGGYNSVSWYQQHPGKAPKLMIYEVINRPSGVSHRFSGSKSGNTASLTISGLQAEDEADYYCSSYTSSSTYVFGTGTKVTVLG
B12: CD22-59: human CD22 scFv SEQ ID NO 134 (protein, listed as Homo sapiens)
scFv: EVQLQQSGPGLVKPSQTLSLTCAISGDSVLSNSDTWNWIRQSPSRGLEWLGRTYHRSTWYDDYASSVRGRVSINVDTSKNQYSLQLNAVTPEDTGVYYCARDRLQDGNSWSDAFDVWGQGTMVTVSSGGGGSGGGGSGGGGSQSALTQPASVSGSPGQSITISCTGSSSDIGGFNYVSWYQQHAGEAPKLMIYEVTNRPSGVSDRFSGSKSDNTASLTISGLQAEDEADYYCSSYASGSPLYVFGTGTKVTVLG
B13: CD22-53: human CD22 CAR, scFv SEQ ID NO 131 (protein)
scFv: EVQLQQSGPGLVKPSQTLSLTCAISGDSVSSNSAAWNWIRQSPSRGLEWLGRTYYRSKWYSDYAVSVKSRITINPDTSKNQFSLQLNSVTPEDTAVYYCARDPYDFWSGYPDAFDIWGQGTMVTVSSGGGGSGGGGSGGGGSQSALTQPASVSGSPGQSITISCTGTSSDVGGYNYVSWYQQHPGKAPKVIISEVNNRPSGVSHRFSGSKSGNTASLTISGLQAEDEADYFCSSYTSGRTLYVFGTGSKVTVLG

One test deals with recombinant human CD22-Fc (Homo sapiens, UniProt P20273). Briefly: Surface expression of CD22 CAR in primary human T-cells (Protein-L, rhCD22-Fc). Format: cell-based. The note with it: day 10, flow cytometry. The procedure:
Primary human T-cells were activated with anti-CD3/antiCD28 stimulatory beads on day 0, followed by lentiviral transduction of specified CAR constructs on day 1. Cells were expanded in vitro until day, 10 at which point they were analyzed by flow cytometry for surface expression of CAR. Two different approaches were utilized to determine surface expression of CAR: Protein-L-biotin followed by streptavidin-PE, and recombinant human CD22-Fc followed by anti-Fc-alexafluor 488. […] CD22 CAR m971 served as a positive control for binding both Protein-L and hrCD22-Fc, and Isotype CAR with no specificity (anti-gH) served as a positive control for Protein-L. T cells expressing no CAR were used as a negative control.
In general terms: In flow cytometry, cells or beads pass a laser one at a time.
On to B1, for which the “surface expression of CAR” value is reported as “positive surface expression”.

As to B2, the “surface expression of CAR” value is given as “positive surface expression”.

For the molecule B3, the “surface expression of CAR” value is listed as “positive surface expression”.

As for B4, the “surface expression of CAR” value is given as “positive surface expression”.

The subject of a further test is Raji, SEM, K562-hCD22, Daudi, and Nalm6. Briefly: Primary T-cell tumor target killing assay. Format: cell-based, human. Conditions: CD22 expressing luciferase target cell lines. The text has this: Primary T-cells activated and transduced as described above were mixed with target cell lines stably expressing luciferase at the ratios indicated (FIG. 20A-20F). […] Untransduced T-cells (UTD) lacked the ability to kill target cell lines.
On to B1, for which the target cell killing entry was “dose-dependent target cell killing”.

Take B2: the target cell killing entry is reported as “dose-dependent target cell killing”.

For B3, the target cell killing entry is listed as “dose-dependent target cell killing”.

For the molecule B5, the target cell killing entry is reported as “dose-dependent target cell killing”.

As for B4, the target cell killing entry is recorded as “dose-dependent target cell killing”.

Another test deals with CD22. Kind of test: NFAT assay of CD22 CAR in JNL cells on antigen-coated plates. Format: cell-based, human. Conditions: plates coated with CD22-FL-Fc, CD22-D567-Fc, CD22-D67. The procedure:
Several CD22 CAR constructs were functionally validated in an NFAT assay. Briefly the experiments were performed as follows. A lentiviral vector (pELPS) carrying a nucleic acid, encoding a CD22 CAR with a CD22-binding scFv domain was introduced by electroporation into a Jurkat T cell line modified to express luciferase under the control of an NFAT response element (JNL). The cells were cultured and allowed to express the CAR construct. The electroporated cells were applied to a plate coated with the target antigen (CD22). Detection of luciferase signal in the coated plate was indicative of binding activity of the CD22 CAR to its antigen, leading to activation of the T cells and expression of luciferase.
The results also indicate that the different scFvs compete with m971 to different extents.
FIG. 72 is a graph showing the activation (in RLU) of several CD22 CAR-expressing JNL cells including CD22-57, CD22-58, CD22-59, CD22-60, CD22-61, CD22-62, and CD22-63, the scFv sequences of which are provided herein. Three different target proteins (CD22-FL-Fc, CD22-D567-Fc, and CD22-D67) were used to coat the tissue culture plates; a negative control (Fc) was also included. A mesothelin binding CAR (Meso-G07) was used as a negative control. CD22-12 and CD22-53 were used as positive controls. […] Domain mapping was performed on CD22 binding domains. Three different forms of antigens were used: CD22 full-length with all 7 external domains, Domain567 (in which domains 1-4 were deleted) and Domain67 (in which domains 1-5 were deleted). While not wishing to be bound by theory, it appears that the binding of various CD22 clones maps to the epitopes illustrated in FIG. 75.
Two scFvs, named CD22-64 and CD22-65, were produced by affinity maturation of hCD22-12. CAR constructs containing these scFvs were tested for activity in an NFAT assay as described above. […] The bars in the figure represent, from left to right, CD22 full length-Fc; CD22 D567-Fc; and an Fc only negative control used for coating of the plates.
Regarding B6, the “function in NFAT assay” value is “functional”.

Take B7: the “function in NFAT assay” value is “functional”.

As to B8, the “function in NFAT assay” value is recorded as “functional”.

Consider B9, for which the “function in NFAT assay” value is “functional”.

For B10, the “function in NFAT assay” value is listed as “functional”.

As to B11, the “function in NFAT assay” value is reported as “functional”.

Regarding B12, the “function in NFAT assay” value is reported as “functional”.

The same test, now with this note: with and without m971 scFv competitor.
As to B13, the “antigen binding / activation (RLU) vs m971” value is “bind the antigen approximately as well as the m971 positive control”.

For another test, the system named is Raji-Luc and Daudi-Luc. Kind of test: IFN-gamma and IL-2 secretion by CD22 CAR primary T cells. Format: cell-based, human. Conditions: E:T 10 to 1, 20-hr co-culture. The protocol:
CD22 CAR constructs were also tested for the ability to promote secretion of IFN-gamma and IL-2. Briefly, transduced primary T cells from healthy donors expressing the different CD22 CARs were co-cultured with the CD22-positive target cells Raji-Luc and Daudi-Luc as well as the negative control K562-Luc. T cells and target cell were cultured in an effector-to-target cell ratio (E:T) of 10 to 1. Supernatants were harvested after 20-hr co-culture. […] Similar results were observed when Nalm6-Luc, Pfeiffer-Luc, and K562-CD22-Luc, and SEM-Luc cells were tested (data not shown). Minimal IFN-gamma secretion was observed when the K562-Luc negative control cell line was tested (bottom panel).
Consider B13, for which the IFN-gamma secretion result was “induced IFN-gamma secretion” and the “relative amount of IFN-gamma” value is reported as “highest amounts”.

As for B5, the IFN-gamma secretion result is recorded as “induced IFN-gamma secretion”.
